Laboratory results from publication PMC8831596, “Structures of highly flexible intracellular domain of human α7 nicotinic acetylcholine receptor” (Nature Communications, 2022).

B1: human α7 nicotinic acetylcholine receptor TMD + ICD construct (L209-V472) (domain or fragment, UniProt P36544 231-494, looked up)
chain: LYYGLNLLIPCVLISALALLVFLLPADSGEKISLGITVLLSLTVFMLLVAEIMPATSDSVPLIAQYFASTMIIVGLSVVVTVIVLQYHHHDPDGGKMPKWTRVILLNWCAWFLRMKRPGEDKVRPACQHKQRRCSLASVEMSAVAPPPASNGNLLYIGFRGLDGVHCVPTPDSGVVCGRMACSPTHDEHLLHGGQPPEGDPDLAKILEEVRYIANRFRCQDESEAVCSEWKFAACVVDRLCLMAFSVFTIICTIGILMSAPNFV
notes: human α7 nicotinic acetylcholine receptor, transmembrane domain plus intracellular domain, 264 residues L209-V472; Single-cysteine, spin-labelled and isotope-labelled versions gave the NMR and ESR restraints for the structure; also called α7nAChR TMD + ICD; source: E. coli Rosetta 2(DE3) pLysS, purified (NiNTA, SEC; pentamer fraction, in DPC or LDAO)
B2: human α7 nicotinic acetylcholine receptor TMD+ICD construct used for NMR (domain or fragment)
chain: SNAEEELYYGLNLLIPCVLISALALLVFLLPADSGEKISLGITVLLSLTVFMLLVAEIMPSTSDSSPSIAQYFASTMIIVGLSVVVTVIVLQYHHHDPDGGKMPKWTRVILLNWCAWFLRMKRPGEDKVRPACQHKQRRCSLASVEMSAVAPPPASNGNLLYIGFRGLDGVHCVPTPDSGVVCGRMACSPTHDEHLLHGGQPPEGDPDLAKILEEVRYIANRFRCQDESEAVCSEWKFAACVVDRLCLMAFSVFTIICTIGILMSAPNFVEE
notes: also called α7nAChR(TMD+ICD)NMR; α7nAChR TMD-ICD; source: E. coli Rosetta 2(DE3) pLysS, purified (NiNTA, SEC)
B3: α7nAChR TMD+ICD C219, single-cysteine construct labelled with MTSL (domain or fragment)
chain: B2 chain
modifications: MTSL on C219
B4: PDZ domain of the intracellular scaffold protein PICK1 (domain or fragment, UniProt Q9NRD5 22-105, looked up)
chain: KVTLQKDAQNLIGISIGGGAQYCPCLYIVQVFDNTPAALDGTVAAGDEITGVNGRSIKGKTKVEVAKMIQEVKGEVTIHYNKLQ
notes: PICK1, PDZ domain; also called PICK1 PDZ domain

Key:
[1] = target: the molecule itself; assay: not stated; result shown in Supplementary Fig. 2 (not shown); the methods tell only that the pentamer fraction was isolated by SEC (S200 10/300, 20 mM HEPES pH 7.4, 300 mM NaCl, 0.2% DPC or 0.1% LDAO)
[2] = target: B4; assay: SPR; steady state; α7nAChR immobilised on an NTA sensor chip (1000-2000 RU), PICK1 PDZ domain flowed at 30 μl/min, 25 °C, Biacore 3000; receptor in 0.05% DDM; apparent dissociation constants, Langmuir isotherm, n=3; settings: both partners purified
[3] = target: B4; assay: SPR; steady state; α7nAChR immobilised on an NTA sensor chip (1000-2000 RU), PICK1 PDZ domain flowed at 30 μl/min, 25 °C, Biacore 3000; receptor in 0.05% LDAO; apparent dissociation constants, Langmuir isotherm, n=3; settings: both partners purified
[4] = target: the molecule itself; assay: SEC; Superdex 200 10/300 Increase GL, 10 mM sodium acetate pH 4.8, 100 mM NaCl, 0.05% LDAO; elution peak at 12.6 ml
[5] = target: the molecule itself; assay: DEER ESR; MTSL-labelled TMD+ICD C219 in LDAO micelles; non-adjacent/adjacent distance ratio ~1.6
[6] = target: T1, full-length human α7 nicotinic acetylcholine receptor (human, UniProt P36544 23-502); assay: SPR; steady state; α7nAChR immobilised on an NTA sensor chip (1000-2000 RU), PICK1 PDZ domain flowed at 30 μl/min, 25 °C, Biacore 3000; receptor in 0.05% DDM; apparent dissociation constants, Langmuir isotherm, n=3; settings: both partners purified
T1 construct: human α7 nicotinic acetylcholine receptor, UniProtKB P36544 ACHA7_HUMAN, full length; also called α7nAChR; full length α7nAChR; source: E. coli Rosetta 2(DE3) pLysS, purified (NiNTA, SEC)
T1 sequence (P36544 23-502): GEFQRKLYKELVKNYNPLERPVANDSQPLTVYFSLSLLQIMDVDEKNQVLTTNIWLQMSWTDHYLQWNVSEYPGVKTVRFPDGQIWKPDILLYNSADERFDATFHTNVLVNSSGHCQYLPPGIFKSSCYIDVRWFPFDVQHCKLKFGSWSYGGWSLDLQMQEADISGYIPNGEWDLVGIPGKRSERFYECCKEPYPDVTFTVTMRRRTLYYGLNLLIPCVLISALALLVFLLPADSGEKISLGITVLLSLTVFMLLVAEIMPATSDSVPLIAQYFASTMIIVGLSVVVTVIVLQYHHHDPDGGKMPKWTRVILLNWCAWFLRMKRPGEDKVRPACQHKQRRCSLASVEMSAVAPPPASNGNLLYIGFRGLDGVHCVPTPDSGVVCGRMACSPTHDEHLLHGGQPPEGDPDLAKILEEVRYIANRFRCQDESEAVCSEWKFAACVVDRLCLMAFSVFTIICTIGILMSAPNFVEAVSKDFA

[7] = target: T1, full-length human α7 nicotinic …; assay: SPR; steady state; α7nAChR immobilised on an NTA sensor chip (1000-2000 RU), PICK1 PDZ domain flowed at 30 μl/min, 25 °C, Biacore 3000; receptor in 0.05% LDAO; apparent dissociation constants, Langmuir isotherm, n=3; settings: both partners purified

Binder: B1
stoichiometry N [1]: 5

Binder: B2
Kd [2]: 4.2 µM
Kd [3]: 4 µM
stoichiometry N [4]: 5

Binder: B3
stoichiometry N [5]: 5

Binder: B4
Kd [6]: 3.3 µM
Kd [7]: 3.1 µM
